From patent publication US20110008345A1 (GlaxoSmithKline, published 2011)
“And” between values parts separate entries of the source, which are not always exact repeats. Equal values may be shown once. Read-outs that look alike come from different tables or passages of the source.

Columns and labels:
[1] = biological target: T1, recombinant E. coli-expressed cynomolgus IL-13 (cynomolgus, UniProt Q0PW92 21-132); experiment: SPR
T1 construct: also called cyno IL-13

[2] = biological target: T1, recombinant E. coli-expressed …; experiment: cell-based or functional assay
[3] = biological target: T2, recombinant E. coli-expressed human IL-13 (human, UniProt P35225 35-146); experiment: cell-based or functional assay
[4] = biological target: T3, recombinant E. coli-expressed human IL-4 (human, UniProt P05112 25-153); experiment: SPR
T3 construct: made and purified at GSK; also called Interleukin-4; rhIL-4
T3 sequence: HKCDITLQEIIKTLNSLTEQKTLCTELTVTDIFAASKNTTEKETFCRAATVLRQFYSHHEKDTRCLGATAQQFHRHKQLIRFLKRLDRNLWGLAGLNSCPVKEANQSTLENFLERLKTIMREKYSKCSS

[5] = biological target: T2, recombinant E. coli-expressed human …; experiment: SPR
[6] = biological target: T1, recombinant E. coli-expressed …; experiment: cell-based or functional assay; remark: listed apart in the source
[7] = biological target: T2, recombinant E. coli-expressed human …; experiment: cell-based or functional assay; remark: listed apart in the source
[8] = biological target: T1, recombinant E. coli-expressed …; experiment: SPR; remark: listed apart in the source
[9] = biological target: T4, recombinant E. coli-expressed cynomolgus IL-4 (cynomolgus, UniProt P79339 25-153); experiment: SPR
T4 construct: also called cyno IL-4
T4 sequence (looked up): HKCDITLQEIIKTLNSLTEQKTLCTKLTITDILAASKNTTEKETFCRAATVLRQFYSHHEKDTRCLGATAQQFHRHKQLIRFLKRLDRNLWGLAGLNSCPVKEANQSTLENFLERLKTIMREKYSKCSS

[10] = biological target: T2, recombinant E. coli-expressed human …; experiment: SPR; remark: listed apart in the source
[11] = biological target: T3, recombinant E. coli-expressed human IL-4; experiment: ELISA, IL-4 binding to IL4Ralpha-Fc
[12] = biological target: T3, recombinant E. coli-expressed human IL-4; experiment: cell-based or functional assay
[13] = biological target: T3, recombinant E. coli-expressed human IL-4; experiment: SPR, purified
[14] = biological target: T2, recombinant E. coli-expressed human …; experiment: SPR, purified
[15] = biological target: T3, recombinant E. coli-expressed human IL-4; experiment: SPR exp 1
[16] = biological target: T2, recombinant E. coli-expressed human …; experiment: SPR exp 1
[17] = biological target: T3, recombinant E. coli-expressed human IL-4; experiment: SPR stoichiometry
[18] = biological target: T2, recombinant E. coli-expressed human …; experiment: SPR stoichiometry
[19] = biological target: T3, recombinant E. coli-expressed human IL-4; experiment: SPR exp 2
[20] = biological target: T2, recombinant E. coli-expressed human …; experiment: SPR exp 2
recombinant human HER2 = biological target: T5, recombinant human HER2 (human, UniProt P04626 23-652, limits assumed); experiment: ELISA
T5 construct: bought

B1: PascoH-TVAAPS-567 (bispecific antibody, human IgG1, kappa)
heavy: not shown
light: DIVLTQSPSSLSASVGDRVTITCKASQSVDYDGDSYMNWYQQKPGKAPKLLIYAASNLESGIPSRFSGSGSGTDFTFTISSLQPEDIATYYCQQSNEDPPTFGQGTKVEIKRTVAAPSVFIFPPSDEQLKSGTASVVCLLNNFYPREAKVQWKVDNALQSGNSQESVTEQDSKDSTYSLSSTLTLSKADYEKHKVYACEVTHQGLSSPVTKSFNRGEC
A Kd [1] of 8.8 nM, a koff [1] of 0.00522 s⁻¹ and a kon [1] of 592000 M⁻¹ s⁻¹ were found for B1 in this work. For the same binder, the “Mean ND50 (TF-1)” value [2] was 38.2 nM, the “Mean ND50 (TF-1)” value [3] was 2.06 nM and the binding result [4] was “binds”. It also gave a Kd [5] of 0.038 nM, a koff [5] of 1.7e-05 s⁻¹ and a kon [5] of 446000 M⁻¹ s⁻¹.

B2: PascoH-TVAAPS-546 (bispecific antibody, human IgG1, kappa)
heavy: not shown
light: DIVLTQSPSSLSASVGDRVTITCKASQSVDYDGDSYMNWYQQKPGKAPKLLIYAASNLESGIPSRFSGSGSGTDFTFTISSLQPEDIATYYCQQSNEDPPTFGQGTKVEIKRTVAAPSVFIFPPSDEQLKSGTASVVCLLNNFYPREAKVQWKVDNALQSGNSQESVTEQDSKDSTYSLSSTLTLSKADYEKHKVYACEVTHQGLSSPVTKSFNRGEC
A Kd [1] of 12.5 nM, a koff [1] of 0.0209 s⁻¹ and a kon [1] of 1.67e+06 M⁻¹ s⁻¹ were found for B2 in this work. The “Mean ND50 (TF-1)” value [2] was 33.9 nM, the “Mean ND50 (TF-1)” value [3] was 1.52 nM and the Kd [4] was 0.00482 nM. The koff [4] was 2.37e-05 s⁻¹, the kon [4] was 4.92e+06 M⁻¹ s⁻¹ and the Kd [5] was 0.747 nM. For the same binder, the koff [5] was 0.000169 s⁻¹ and the kon [5] was 226000 M⁻¹ s⁻¹.

B3: PascoH-GS-ASTKGPT-474 2nd GS removed (bispecific antibody, human IgG1, kappa)
heavy: not shown
light: DIVLTQSPSSLSASVGDRVTITCKASQSVDYDGDSYMNWYQQKPGKAPKLLIYAASNLESGIPSRFSGSGSGTDFTFTISSLQPEDIATYYCQQSNEDPPTFGQGTKVEIKRTVAAPSVFIFPPSDEQLKSGTASVVCLLNNFYPREAKVQWKVDNALQSGNSQESVTEQDSKDSTYSLSSTLTLSKADYEKHKVYACEVTHQGLSSPVTKSFNRGEC
B3 was tested, and the “Mean ND50 (TF-1)” value [6] was 21.5 nM, the “Mean ND50 (TF-1)” value [7] was 1.37 nM and the Kd [8] was 23.8 nM. For the same binder, the koff [8] was 0.0114 s⁻¹, the kon [8] was 479000 M⁻¹ s⁻¹ and the Kd [9] was 0.029 nM. It also gave a koff [9] of 5.3e-05 s⁻¹ and a kon [9] of 1.83e+06 M⁻¹ s⁻¹.

B4: BPC1609 (bispecific antibody, human IgG1, kappa)
heavy: not shown
light: DIVMTQSPLSLPVTPGEPASISCRSSQNIVHINGNTYLEWYLQKPGQSPRLLIYKISDRFSGVPDRFSGSGSGTDFTLKISRVEADDVGIYYCFQGSHVPWTFGQGTKLEIKRTVAAPSVFIFPPSDEQLKSGTASVVCLLNNFYPREAKVQWKVDNALQSGNSQESVTEQDSKDSTYSLSSTLTLSKADYEKHKVYACEVTHQGLSSPVTKSFNRGEC
A Kd [10] of 1.01 nM was found for B4 in this work.

B5: DOM9-112-210 domain antibody (other)
VH: EVQLLESGGGLVQPGGSLRLSCAASGFTFRNFGMGWVRQAPGKGLEWVSWIISSGTETYYADSVKGRFTISRDNSKNTLYLQMNSLRAEDTAVYYCAKSLGRFDYWGQGTLVTVSS
notes: anti-IL-4 dAb
With B5 the IC50 [11] was 36.8 nM and the “Mean IC50 (whole blood phospho-STAT6)” value [12] was 3.51 nM.

B6: PascoH-474 (bispecific antibody, human IgG1, kappa)
heavy: not shown
light: DIVLTQSPSSLSASVGDRVTITCKASQSVDYDGDSYMNWYQQKPGKAPKLLIYAASNLESGIPSRFSGSGSGTDFTFTISSLQPEDIATYYCQQSNEDPPTFGQGTKVEIKRTVAAPSVFIFPPSDEQLKSGTASVVCLLNNFYPREAKVQWKVDNALQSGNSQESVTEQDSKDSTYSLSSTLTLSKADYEKHKVYACEVTHQGLSSPVTKSFNRGEC
notes: also called BPC1000
A Kd [13] of 0.037 nM, a Kd [14] of 0.71 nM and a Kd [8] of 18.6 nM were found for B6 in this work. The koff [8] was 0.0109 s⁻¹, the kon [8] was 586000 M⁻¹ s⁻¹ and the Kd [9] was 0.0439 nM. For the same binder, the koff [9] was 8.14e-05 s⁻¹, the kon [9] was 1.85e+06 M⁻¹ s⁻¹ and the Kd [15] was 0.02 nM. It also gave a koff [15] of 9.4e-05 s⁻¹, a kon [15] of 4.8e+06 M⁻¹ s⁻¹ and a Kd [16] of 0.84 nM. It also gave a koff [16] of 0.00031 s⁻¹, a kon [16] of 360000 M⁻¹ s⁻¹ and a Stoichiometry [17] of 1.8. For the same binder, the Stoichiometry [18] was 1.9.

B7: PascoL-G4S-474 (bispecific antibody, human IgG1, kappa)
heavy: not shown
light: DIVLTQSPSSLSASVGDRVTITCKASQSVDYDGDSYMNWYQQKPGKAPKLLIYAASNLESGIPSRFSGSGSGTDFTFTISSLQPEDIATYYCQQSNEDPPTFGQGTKVEIKRTVAAPSVFIFPPSDEQLKSGTASVVCLLNNFYPREAKVQWKVDNALQSGNSQESVTEQDSKDSTYSLSSTLTLSKADYEKHKVYACEVTHQGLSSPVTKSFNRGECGGGGSGVQLLESGGGLVQPGGSLRLSCAASGFTFAWYDMGWVRQAPGKGLEWVSSIDWHGEVTYYADSVKGRFTISRDNSKNTLYLQMNSLRAEDTAVYYCATAEDEPGYDYWGQGTLVTVSS
In the case of B7, the Kd [19] is reported as 0.063 nM and 0.052 nM, the koff [19] is reported as 0.000135 s⁻¹ and 0.000111 s⁻¹ and the kon [19] is reported as 2.14e+06 M⁻¹ s⁻¹ and 2.13e+06 M⁻¹ s⁻¹. For the same binder, the Kd [13] was 0.028 nM, the Kd [14] was 1.2 nM and the Kd [20] was 0.756 nM and 0.621 nM. For the same binder, the koff [20] was 0.000425 s⁻¹ and 0.000347 s⁻¹, the kon [20] was 563000 M⁻¹ s⁻¹ and 559000 M⁻¹ s⁻¹ and the Stoichiometry [17] was 1.8. The Stoichiometry [18] was 1.8.

B8: BPC1612 (bispecific antibody, human IgG1, kappa)
heavy: not shown
light: DIVMTQSPLSLPVTPGEPASISCRSSQNIVHINGNTYLEWYLQKPGQSPRLLIYKISDRFSGVPDRFSGSGSGTDFTLKISRVEADDVGIYYCFQGSHVPWTFGQGTKLEIKRTVAAPSVFIFPPSDEQLKSGTASVVCLLNNFYPREAKVQWKVDNALQSGNSQESVTEQDSKDSTYSLSSTLTLSKADYEKHKVYACEVTHQGLSSPVTKSFNRGEC
A Kd [10] of 0.565 nM was found for B8 in this work.

B9: BPC1615 (bispecific antibody, human IgG1, kappa)
heavy: not shown
light: EIVLTQSPATLSLSPGERATLSCRASQNISDYLHWYQQKPGQAPRLLIYYASQSISGIPARFSGSGSGTDFTLTISSLEPEDFAVYYCQNGHSFPLTFGGGTKVEIKRTVAAPSVFIFPPSDEQLKSGTASVVCLLNNFYPREAKVQWKVDNALQSGNSQESVTEQDSKDSTYSLSSTLTLSKADYEKHKVYACEVTHQGLSSPVTKSFNRGEC
notes: also called 656H TVAAPS-210 & 656kappa
A Kd [10] of 0.085 nM was found for B9 in this work.

B10: BPC1805 (bispecific antibody, human IgG1, kappa)
heavy: not shown
light: DIVMTQSPLSLPVTPGEPASISCRSSQSIVQSNGDTYLEWYLQKPGQSPQLLIYRVSNRFSGVPDRFSGSGSGTDFTLKISRVEAEDVGVYYCFQGSHVPYTFGQGTKLEIKRTVAAPSVFIFPPSDEQLKSGTASVVCLLNNFYPREAKVQWKVDNALQSGNSQESVTEQDSKDSTYSLSSTLTLSKADYEKHKVYACEVTHQGLSSPVTKSFNRGEC
notes: anti-HER2 Affibody fusion; also called antiIGF1R Heavy Chain-GS-AFFI
B10: binds (recombinant human HER2).

B11: BPC1806 (bispecific antibody, human IgG1, kappa)
heavy: not shown
light: DIVMTQSPLSLPVTPGEPASISCRSSQSIVQSNGDTYLEWYLQKPGQSPQLLIYRVSNRFSGVPDRFSGSGSGTDFTLKISRVEAEDVGVYYCFQGSHVPYTFGQGTKLEIKRTVAAPSVFIFPPSDEQLKSGTASVVCLLNNFYPREAKVQWKVDNALQSGNSQESVTEQDSKDSTYSLSSTLTLSKADYEKHKVYACEVTHQGLSSPVTKSFNRGEC
notes: anti-HER2 Affibody fusion
B11: binds (recombinant human HER2).

B12: BPC1807 (bispecific antibody, human IgG1, kappa)
heavy: not shown
light: DIVMTQSPLSLPVTPGEPASISCRSSQSIVQSNGDTYLEWYLQKPGQSPQLLIYRVSNRFSGVPDRFSGSGSGTDFTLKISRVEAEDVGVYYCFQGSHVPYTFGQGTKLEIKRTVAAPSVFIFPPSDEQLKSGTASVVCLLNNFYPREAKVQWKVDNALQSGNSQESVTEQDSKDSTYSLSSTLTLSKADYEKHKVYACEVTHQGLSSPVTKSFNRGEC
notes: anti-HER2 DARPin fusion; also called antiIGF1R Heavy Chain-GS-DRPN
B12: binds (recombinant human HER2).

B13: BPC1808 (bispecific antibody, human IgG1, kappa)
heavy: not shown
light: DIVMTQSPLSLPVTPGEPASISCRSSQSIVQSNGDTYLEWYLQKPGQSPQLLIYRVSNRFSGVPDRFSGSGSGTDFTLKISRVEAEDVGVYYCFQGSHVPYTFGQGTKLEIKRTVAAPSVFIFPPSDEQLKSGTASVVCLLNNFYPREAKVQWKVDNALQSGNSQESVTEQDSKDSTYSLSSTLTLSKADYEKHKVYACEVTHQGLSSPVTKSFNRGEC
notes: anti-HER2 DARPin fusion
B13: binds (recombinant human HER2).
